Source: the nanobody polyreactivity screen of Harvey et al. (2022)

Assay: yeast display, Sf9 membrane polyspecificity reagent, FACS + sequencing; frameworks hold sequencing errors
Outline: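 Galactose-induced (36–48 hours) yeast carrying a synthetic nanobody display library were exposed to 10% biotinylated, detergent-solubilized Sf9 membrane reagent at 4 °C for 1 hour. FACS followed streptavidin microbead enrichment, using low and high (top ~1%) gates for expression (anti-HA) and reagent binding (streptavidin). Colony PCR, MiSeq 2 × 250 sequencing and CDR-length filtering followed. Labels for polyreactivity reflect the gate of origin.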

Sequence | polyreactivity (PSR sort gate)
QVQLVESGGGLVQAGGSLRLSCAASGRIFYDNAMGWYRQAPGKERELVAAISYSGDSTYYADSVKGRFTISRDNAKNTVYLQMNSLKPEDTAVYYCAAVYISQGAFAYDYWGQGTQVTVTS | low polyreactivity
QVQLVESGGGLVQAGGSLRLSCAASGSIFRYYAMGWYRQAPGKERELVAAIRWSGGRTYYADSVKGRFTISRDNAKNTVYLQMNSLKPEDTAVYYCAADQPDYKTNVRYYYWGQGTQVTVSS | high polyreactivity
QVQLVESGGGLVQAGGSLRLICAASGSILVSYARGWYRQAPGKERELVAAITSGGRTKYADSVKGRFTISRDNAKNTVYLQMNSLKPEDNAVYYCAADDPLSYQFDYWGQGTQVTVSS | high polyreactivity
QVQLVESGGGLVQAGGSLRLSSAASGSTFTSYAMGWYRQAPGKEREVVSTITGRGGSTSYSDSVKGRFTISRDNAKNTVYLQMNSLKPEDTAVYYCAKRVVVWYFGTGDYWGQGTKVTVSS | low polyreactivity
QVQLVESGGGLVQAGGSLRLSCAASGIIIRKYAMGWYRQAPGKERELVAAITTRGSRTYYADSVKGRFTISRDNAKNTVYFEMNSLKPEDTAVYYCAADFGYAWWWYDTYGYWGQGTQVTVSS | high polyreactivity
QVQLVESGGGIVQAGGSLRLSCAASGRIFRSYTMGWYRQAPGKERELVAAISWTGGRTYYADSVKGRFTISRDNAKNTVYLQMNSLKPEDTAVYYCAATNRYYIYDYWGQGTQVTVSS | high polyreactivity
QVQLVESVGGLVQAGGSLRLSCAASGSIFQPYAMGWYRQAPGKERELVAAISIGDSTNYADSLKGRFTISRDNAKNTFYLQMNSLIPEDTAVYYCNTTGEYYDYWGQGTQVTVSS | low polyreactivity
QVQLVESGGGLVQAGGSLRLTCAASGSTFSRYVIGWYRQEPGKERELVAAISRSGSTYYADSVKGRFTISRDNAKNTVYLQMNSLKPEDTAVYYCAASGSKSAGYGYWGQGTQVTVSS | high polyreactivity
QVQLVESVGGLVQAGGSLRLSCAASGNIFRGYTMGWYRQAPGKESELVATITWTGVSTFYADSVKGRFTISRDNAKNTVYLQMNSLKPEDTAVYYCAAYYPSHDYSGFWSDTYEYWGQGTQVTVSS | low polyreactivity
QVQLVESGGRLVQAGGILRLSCAASGSTFSPYAKGRNRQAPGKERELVAGITSSGGDTYYADSVKGRFTISRDNAKNTVYLLMNSLKPEDTAVYYCAADWWVLGQLWFDYWGHGTQVTVSS | low polyreactivity
QVQLVESGGGLVQAGGSLRLSCAASGSTFTRYDMGSYRQAPGKERELVAAISKSGGSTYYADSVKGRFRISRDNAKNTVYLQMNSLKPEDTAVYYCNQLVEEDYWGQGTQVTVSS | low polyreactivity
QVQLVESGGGLVQAGGSLRLSCAASGRTFTTNTMGWYRQAPGKERELVAGIRWSGSRTYYADSVKGRFTISRDNAKITVFLQMNSLKPEDSAVYYCAVGRRSDAPLYVYRFDYWGQGTQVTVSS | low polyreactivity
QVQLVESGGGLVQAGGSLRLSCAASGRIFPVYAMGWYRQAPGKERELVAAIRRTGGSTYYADSVKGRFTISRDNAKNTVYLQLNRLKPEDTAVYYCSVSSQPPLSRYGRFGVGYWGQGTQVTVSS | high polyreactivity
QVQLVESAGGLVQAGGSLSLSCAASGILVYNAMGWYRQAPGKQRELVAAISARGGRTYYADSVKWRFTISRDNAKNTVYLQMNSLKTEDTAVSYCATLETTGVNYWGQGTQVTVSS | high polyreactivity
QVQLVESGGGLVQAGGSLRLSCAASGSTCRGYAMGWYRQAPGKEREFVAAISRRGGTTYYADSVKGRFTISRDNAKNTVYLQMNSLKQEDTAVYYCNKVYYQHYLAFDYWGQGTQVTVSS | high polyreactivity
QVQLVESGGGLVQAGGSLRLSCAASGFIFRVYAMGWYRQAPGKERELVAAISSSGSSTFYADSVKGRFTISRDNAKNTVYLQMNSLKPEDTAVYYCNAYVRRIVRSYYWGQGTQVTVSS | high polyreactivity
QVQLVESGGGLVQAGGSLRLSCAASGSTLRAYAMGWYRQAPGKERELVAGITSGGRTNYADSVKGRFTISRDNAKNTVYLQMNSLKPEDTAVYYCATDRFSHYYFLYDYWGQGTQVTVSS | low polyreactivity
QVQLVESGGGLVQAGGSLRLSCAASGRTFRVYAKGWYRQAPGKERDFVAAITDSGGRKYYADSVKGRFTISRDNAKHTVYVQMNSLKPEDTAVYYCNAYEYFVRYDTYLFRYDYWGQGTQVTVSS | low polyreactivity
QVQLVESGGGLVQAGCSLRLSCAASGRIFQTNVMGWYRQAPGKDRELVAAISYRGGTTYYADSVKGRFTISRDNAKNTVYLQMNSLKPEDPAVYYCAALHYRIRRTGMDYWGQGTQVTVSS | low polyreactivity
QVQLVESGGGLVQAGGSLRLSCAASGFIFGHNTMVWYRQAPGKERELVAAITRSGGRTYYADSVKGRFTISRDNAKNTVYLQMNSLKPEDTAVYYCNAYPTRPADGDYDYWGQGTQVTVSS | high polyreactivity
QVQLVESGGGLVQAGGSLRLSCAASGSIFPQYAMGWYRQAPGKERELVAVISWSGGRTYYADSVKGRFTISRDNAKNTVYLQMNSLKPEDTAVYYCAAKYWYQRYAQSSYTRYYWGQGTQVTVSS | high polyreactivity
QVQHEESGGGLVQAGGSLRLSCAASGRTYDPYAMGWYRQAPGKERELVAAISSGGSTNYADSVKGRFTISRDNAKNTVYLQMNSLKPEDTAVYYCGTDSGDGEGDYWGQGSQVTVSS | low polyreactivity

Sequence | polyreactivity (PSR sort gate)
QVQLVESGGGLVQAGGSLLLSCAASGSIFPYYAMGMYRQAPGKERELVAAITDGGSTNYADSVKGRFTISRDNAKNTFYLQMNSLKQEDTAVYYCNKLPGYYDYDYWGQGTQVTVSS | low polyreactivity
QVQLVESGGGLVQAGGSLRLSCAASGFTFLKYAMGWYRQAPGKERELVAAISWSGDSTYYADSVKGRFTISRDNAKNTVYLQMNSLKPEDTAVYYCAATYSFYGYYYWGQGTQVTVSS | high polyreactivity
QVQLVESGGGLVQAGGSLRLSCAASGFTFYGYAMGWYRQAPGKEREFVADISSRDGSTYYADSVKGRFTISRDNAKNTVYLQMNSLKPEDTAVYYCAADSGQYKWSDYDYWGQGTQVTVSS | low polyreactivity
QVQLVESGGGLVQAGGSLRLSCAASGIIILEYVMGSYRQAPGKERELVAAINSGGSTYYADSVKGRFTISRDNAKNTVYLQMNSLKPEDTAVYYCAADDYYKFDYWGQGTQVTVSS | low polyreactivity
QVQLVESGGGLVQAGGSLRLSCAASGSIFTPYVKGWYRQAPGKERELVAAISKRGTRTYYSDSVKGRFTISRDNAKNTVYLQMNSLKPEDTAVYYCNAAVDYGSEHDYWGQGTQVTVSS | high polyreactivity
QVQLVESGGGLVQAGGSLRLSCAASGSTFVWYVMGWYRQAPGNERELVAAISRSGGTTFYADSVKGRFTISRANAKNTVYLQMNSLKPEDTAVYYCAAEDVAYRPGYDYWGQGTQVTVSS | high polyreactivity
QVQRVESGGGLVQAGGSLRLSCAPSGSTFPSYAMGWYRQAPGKERELVAAITRRGGRTYYADSVKGRFTISRDNAKKTVYLQMNSLKPEDTAVYYCNRVSRKILDGDYDYWGQGTQVTVSS | high polyreactivity
QVQLVESGGGLVQAGVSLRLSCASSGSIFPEYVMAWYRQAPGKERELVAAISWSGGSTYYADSVKGRITISRDNAKNTVYFQMNCLKQEATAVYYCNRVPSWRIDYDYWGQGTLVTVSS | low polyreactivity
QVQLVESGGGLVQAGGSLRLSCASSGRIFYYNAMGWYRQAPGKERELVAAISKRGGITSYADSVKGRFTISRDNAKNTVYLPMNSLKPEDTAVYYCAADLVPWRGGYYYWGQGTLVTVSS | high polyreactivity
QVQLVESGGGLVQAGGSLRLSCAASGRIIPSYAMGWYRQAPGKERELVAAISDSDGSTYYADSVKGRFTISRDNAKNTVYLQMNSLKPEDTAVYYCAAEGSYPAYDYWGQGTQVTVSS | low polyreactivity
QVQLVESGGGLVQAGGSLRLSCAASGFTFYRYTMGWNRQAPGKERELVASITRRGGSTYYADSVKGRFTISRDNAKNTVYFQMNSLKPEDTAVYYCNAATPVWQSGTYEYWGQGTQVTVSS | high polyreactivity
QVQLVDSGGGLVQAGGSLRLSCASSGNTFAGNARGWYRQAPGTERELVAAISRSGVTTRYADSVKGRFTISRDNAKNTVYLQMNSLKQEDTAVYYCNADPRLRQTRDYWGHGTQVTVSS | high polyreactivity
QVQLVESGGGLVQAGGSLRLSCAASGSTFQDYAMGWYRQAPGKERELVAAITYSGGSTYYADSVKGRFTISRDNAKNTVYLQLNSLKPDVTAVYYCAAKDTTVFYYDDDYWGQGTQVTVSS | low polyreactivity
QVQLVESGGGLVQAGGSLRLSCAASGITFNVNAMGWYRQAPGKERELVAAISWRGGSTYYADSVKGRFTISRDNAKNTVYLQMNSLKPEDTAVYYCAAKLDGSSYYYWGQGTQVTVSS | low polyreactivity
QVQLVESGGGLVQAGGSLRLSCAASGRIFGYYAMGWYRQAPGKERELVAAITRNGGSTYYADSVKGRFTISRDNAKNTVYLQMNSLKPEDTAVYYCAATKGGGRGYWGQGTQVTVSS | high polyreactivity
QVQLVESGGGLVQAGGSLRLSCAASGSTFGMNAMGWYRQAPGKERELVAAIDSSGGTTYYADSVKGRFTISRDHAKNTVYLQMNSRKPEDTAVYYCAADDNYYTFGYWGQGSQVTVSS | high polyreactivity
QVQLVESGGGLVQAGGSLRLSCAASGFIFRSNAMGWYRQAPGKERELVAAITRGDSTNYADSVKGRFTITRDNAKNTDYLQKNSLKPEDTAVYYCAAGRSYHSGVHHYRKRNYWGQGTQVTVSS | high polyreactivity
QVQLVESGGGLVQAGGSLRLSCAASGFIFGRNAMGWYRQAPGKEREFVAAITRIGGNTYYADSVKGRFTISRDNAKNTVYLQMNSLKPEDTAVYYCAARLSYFHAYGFYWGQGTQVTVSS | high polyreactivity
QVQLVESGGGLVQAGGSLRLSCAASGSTFGPYVMGWYRQAPGKERELVAAISQSGGSTYYADSVKGRFTISRDNAKNTVYLQMNSLKPEDTAVYYCAAQTPYGMYYWGQGTQVTVSS | low polyreactivity
QVQLVESGGGLVQAGGSLRLSCAASGIIFRFYAMGWYRQAPGKERELVAAITSSGGSTYYADSVKGRFTISRDNAKNTVYLQMNSLKPEDTAVYYCATSTGPYRGRFYYWGQGTQVTVSS | high polyreactivity
QVQLVESGGGLVQAGGSLRLSCAASGFIFDRYAMGWYRQAPGKERELVAAITGSGGSTYYADSVKGRFTISRDNAKNTVYLQMNSLKPEDTAVYYCAAESYVYFALFYVSIPYYYWGQGTQVTVSS | high polyreactivity
